Assays:
[1] = molecular target: T1, recombinant soluble human HLA-G β2M MHC class I complex, dimer (human); test: ELISA, HLA-G dimer coated on plate
T1 construct: also called HLA-G Dimer; fraction A9
Description: (§1) The above table summarizes the binding of different rat anti-human HLA-G monoclonal antibodies, derived from wt protein IMS. Shown are the relative EC50 values [ng/ml] of the respective binding to rec. wt monomeric, dimeric and trimeric HLA-G proteins as assessed by ELISA. The ELISA was set up by coating the biotinylated wt HLA-G antigen to strepdavidin plates. After incubation and washing steps, the respective antibodies were bound in a concentration range from 10-0 μg in 1:2 dilution steps. Detection of bound antibodies was carried out by anti-Fc-antibody-POD conjugates. EC50 values were determined from the resulting binding curves at the antibody concentrations generating the half-maximal signal. In case of the non-biotinylated HLA-G dimer and trimer antigens, immobilization was carried out by random coating on assay plates.

[2] = molecular target: T2, recombinant soluble human HLA-G β2M MHC class I complex, trimer (human); test: ELISA, HLA-G trimer coated on plate
T2 construct: also called HLA-G Trimer; fraction A8
Description: as §1

[3] = molecular target: T3, recombinant soluble human HLA-G β2M MHC class I complex, monomer (human); test: ELISA, biotinylated wt HLA-G monomer on streptavidin plate
T3 construct: His tagged; also called HLA-G-0003
Description: Streptavidin coated plates (Nunc, MicroCoat #11974998001) were coated with 25 μl/well biotinylated human wt HLA-G at a concentration of 250 ng/ml and incubated at 4° C. overnight. After washing (3×90 μl/well with PBST-buffer) 25 μl anti-HLA-G samples (1:3 dilution in OSEP buffer) or reference antibody (G233, Thermo/Pierce #MA1-19449, 500 ng/ml) were added and incubated 1 h at RT. After washing (3×90 μl/well with PBST-buffer) 25 μl/well goat-anti-mouse H+L-POD (Biorad #170-6561, 1:2000 in OSEP) or donkey-anti-rabbit IgG POD (GE #NA9340V, 1:5000 in OSE) was added and incubated at RT for 1 h on shaker. For detection of rat IgGs a mixture of goat-anti-rat IgG1-POD (Bethyl #A110-106P), goat-anti-rat IgG2a-POD (Bethyl #A110-109P) and goat-anti-rat IgG2b-POD (Bethyl #A110-111P) 1:10000 in OSEP was added and incubated at RT for 1 h on shaker. After washing (6×90 μl/well with PBST-buffer) 25 μl/well TMB substrate (Roche, 11835033001) was added and incubated until OD 2-3. Measurement took place on a Tecan Safire 2 instrument at 370/492 nm.
as §1

[4] = molecular target: T3, recombinant soluble human HLA-G β2M MHC …; test: competition ELISA, immobilised biotinylated wt HLA-G, competitor c-myc ILT2
Description: (§2) Streptavidin coated plates (Nunc, MicroCoat #11974998001) were coated with 25 μl/well biotinylated human wt HLA-G at a concentration of 500 ng/ml and incubated at 4° C. overnight. After washing (3×90 μl/well with PB ST-buffer) 25 μl anti-HLA-G samples were added in decreasing concentrations starting at 8 μg/ml, then diluted in 1:3 steps and incubated 1 h at RT. After washing (3×90 μl/well with PBST-buffer) 25 μl/well c-myc-tagged recombinant ILT-2 receptor was added at a concentration of 150 ng/ml and incubated for 1 h at room temperature. After washing (3×90 μl/well with PBST-buffer) 25 μl/well goat-anti-c-myc-POD (Bethyl #A190-104P 1:7000 in OSE) was added and incubated at RT for 1 h on a shaker. After washing (6×90 μl/well with PBST-buffer), 25 μl/well TMB substrate (Roche, 11835033001) was added and incubated until OD 2-3. Measurement took place on a Tecan Safire 2 instrument at 370/492 nm
(§3) The ELISA was set up by coating the biotinylated antigen wt HLA-G to strepdavidin plates. After incubation and washing steps, the respective antibodies were bound in a concentration range from 8-0 μg in 1:3 dilution steps. C-myc tagged ILT-2 or -4 receptor was added to the HLA-G-antibody complexes. After incubation and washing steps, detection of bound receptor was carried out by anti-cmyc-antibody-POD conjugates. IC50 values were determined from the resulting inhibition curves at the antibody concentrations generating the half-maximal inhibition. In case of the non-biotinylated HLA-G dimer and trimer antigens, immobilization was carried out by random coating on assay plates.

[5] = molecular target: T3, recombinant soluble human HLA-G β2M MHC …; test: competition ELISA, immobilised biotinylated wt HLA-G, competitor c-myc ILT4
Description: The above table summarizes the blocking of interaction between rec. HLA-G proteins (monomer and oligomers) to its receptors ILT2 and ILT4 as assessed by ELISA.
as §3

[6] = molecular target: T1, recombinant soluble human HLA-G β2M MHC …; test: blocking ELISA, Fc tagged ILT2 coated, 100 nM antibody, soluble HLA-G dimer
Description: (§4) The ELISA was set up by coating the Fc tagged ILT2 and ILT4 respectively to Maxisorp microtiter plates. After incubation and washing steps, the respective antibodies were added at a concentration of 100nM. Soluble His tagged monomeric, dimeric or trimeric HLA-G was added to the wells. After incubation and washing steps, detection of bound receptor was carried out by anti-His-antibody-POD conjugates.

[7] = molecular target: T1, recombinant soluble human HLA-G β2M MHC …; test: blocking ELISA, Fc tagged ILT4 coated, 100 nM antibody, soluble HLA-G dimer
Description: as §4

[8] = molecular target: T2, recombinant soluble human HLA-G β2M MHC …; test: blocking ELISA, Fc tagged ILT4 coated, 100 nM antibody, soluble HLA-G trimer
Description: as §4

[9] = molecular target: T3, recombinant soluble human HLA-G β2M MHC …; test: blocking ELISA, Fc tagged ILT4 coated, 100 nM antibody, soluble HLA-G monomer
Description: as §4

[10] = molecular target: T1, recombinant soluble human HLA-G β2M MHC …; test: competition ELISA, immobilised HLA-G dimer, antibody titrated, competitor c-myc ILT2
Description: as §3

[11] = molecular target: T3, recombinant soluble human HLA-G β2M MHC …; test: competition ELISA, immobilised HLA-G monomer, antibody titrated, competitor c-myc ILT2
Description: as §2, §3

Row | EC50 [1] | EC50 [2] | EC50 [3] | % inh. ILT2 (3 µg/ml antibody) [4] | % inh. ILT4 [5] | % inh. ILT2 [6] | % inh. ILT4 [7] | % inh. ILT4 [8] | % inh. ILT4 [9] | IC50 [10] | IC50 [11] | Binder
1 | 2.01 nM | 2.5 nM | 4.95 nM | 82.9% | 41% | 96% | 61% | 67% | 1% | 0.8 nM | 13 nM | HLA-G-0037 (antibody, V domains shown) VH: QVQLKESGPGLVQPSQTLSLTCSVSGFSLTTYSVSWVRQPPGKGLEWIGAIWSGGSTDYNSALKSRLRISRDTSKSQVLLKMNSLQTEDRAMYFCVRMNNKFGYWYFDLWGPGTMVTVSS VL: DTVLTQSPTLAVSPGEKITISCRASETVSTMLHWYQQKPGQQPKLLISLASHLESGVPARFTGSGSGTDFTLTIDPVEADDTATYYCQQTWNDPLTFGSGTKLEIK
2 | 1.36 nM | 1.76 nM | 3.59 nM | 86.8% | 43% | 95% | 62% | 68% | 12% | 1.3 nM | 8.4 nM | HLA-G-0032 (antibody, V domains shown) VH: QVQLQQSGAELVKPGSSVKISCKASGYSFPSYDMHWIKQQPGNGLEWIGWIYPGNGNTKYNQKFNGKASLTADKSSSTAYMQLSSLTSEDSAVYFCAKPTVATRYNWFAYWGQGTLVTVSS VL: QIVLTQSPALMSASPGEKVTMTCSASSSVNYMHWYQQKPRSSPKPWIYLTSNLASGVPARFSGSGSGTSYSLTISTMEAEDAATYYCQQWSSNLPITFGSGTKLEIK
3 | 1.98 nM | 1.54 nM | 4.94 nM | 85.3% | 44.6% | 95% | 70% | 71% | 14% | 1.2 nM | 8 nM | HLA-G-0033 (antibody, V domains shown) VH: EVQLVETGGGLVQSGRSLKLSCVASGFTFNDYWMTWTRQAPGKGLEWVASITNSGGRTYYLDSVRGRFTISRDDAQNTLYLQMNSLRSEDTATYYCTKERIYLTAYWFFDFWGPGTMVTVSS VL: DTILTQSPALAVSPGERVTISCRASESVSTLIHWYQQKPGQRPKLLIYLASHLESGVPARFSGSGSGTDFTLTIDPVEADDTATYYCQQSWNEPRTFGGGTKLELK
